Assay: yeast display, Sf9 membrane polyspecificity reagent, FACS + sequencing; frameworks hold sequencing errors
Summary of the method: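 Nanobodies from a synthetic yeast display library (Saccharomyces cerevisiae BJ5465), induced 36–48 hours with galactose, were stained 1 hour at 4 °C with 10% biotinylated, detergent-solubilized Sf9 membrane reagent, enriched on streptavidin microbeads, then FACS-sorted. Anti-HA (expression) and streptavidin (reagent binding) fluorescence set low and high (top ~1%) gates. Polyreactivity labels come from the gate of origin. Genes were colony-PCR amplified, MiSeq 2 × 250 sequenced and filtered by CDR length.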

Row | Sequence | polyreactivity (PSR sort gate)
1 | QVQLEESGGGLVQAGGSLRLSCAASGFTFVPYAMGWYRPAPGKETEFVAALFSDGSTYYADSVKGRFTISRDNAKNTVYLQMNSLKPEDTAVYYCAAAGESSRTGHFDYWGQGTQVTVSS | low polyreactivity
2 | QVQLVESGGGLVQAGGSLRLSCAASGSTFREYAMGWSRQAPGKERELVAAISSGDSTNYADSVKGRFTISRDNAKNTVYLQMNSLKPEDTAVYYCAADAPGAAAVQNDYWGQGTQVTVSS | low polyreactivity
3 | QVQLVESGGGLVQAGVRLRLSCPASGTTFYYNAMGRYRQAPGKERELVAAITSGGRTKYADSVKGRFTISRDNAKNTVYLQKNRLKPEDTAVYYCNTYNRRSGTLPKAYDYWGQGTQVTVSS | high polyreactivity
4 | QVQLVESGGGLVQAGGSLRLSCAASGSTFGQYAMGWYRQAPGKERELVAAISTSGGSTYYADSVKGRFTISRDNAKNTVYLQMNSLKPEDTAVYYCAVDRLPSYPTGFDYWGQGTQVTVSS | high polyreactivity
5 | QVQLVESGGGLVQAGGSLRLSCAASGRTFRPYAMGWYRQAPGKEMELVAAIDSSGTSTYYADSVKGRFTISRDTAKNTVYLQMNSLKPEDTAVYYCAKAWPDHWYSRYDYWGQGTQLTVSS | low polyreactivity
6 | QVQLVESGVGLVQAGVRLRLSCAASGITLRRYAMGWYRQAPGKEREFVAAISRTGGNTYYADSVKGRFTISRDNAKNTVYLQMNSLKPEDTAVYYCAREVYRHYAPVGYDYWGQGTQVTVSS | high polyreactivity
7 | QVQLVESGGGLVQAGGSLRLICAASGRIFWSNAMRWSRQAPGKVSELVAAISSGGSTYYADSVKGRFTISRDNAKNTVYLQMNRLKPEDTAVYYCATRGIQRGFSRWGGLDYWGQGTLVTVSS | low polyreactivity
8 | QVQLVESGGGLVQAGGSLRLSCAASGSTFLYYAMGWYRQAPGKERELVAAITSSGGRTYYADSVKGRFTISRDNAKNTVYLQMNSLKPEDTAVYYCARGWPRREQSEYDYWGQGTQVTVSS | high polyreactivity
9 | QVQLVESGGGLVQAGGSLRLSCAASGYTFGVNAMGWYRQAPGKERELVAAISRSGGRTYYADSVKGRFTISRDNAKNTVYLQMTSLKPEDTAVYYCAKDRSGSYYNFPEYDYWGQGTQVTVSS | high polyreactivity
10 | QVQLVESGGGLVQAGGSLRLSCAASGSTFFGYDMGWSRQAPGKERELVATINSGGSTYYADSVKGRFTISRDNAKNTVYLQMNSLKPADTAVYYCAARPSYLYPYDRTGEYDYWGQGTQVTVSS | high polyreactivity
11 | QVQLVESGGGLVQAGGSLRLICAASGGTFWIYAMGWYRQAPGKERELVAGITTSGATTYYADSVKGRFTISRDNAKNTVYLQMNSLKPEDTAVYYCAADEYYRYEYWGQGTQVTVSS | low polyreactivity
12 | QVQLVESGGGLVQAGGSRRLSCAASGLTFANYVMGWYIQAPGKERELVAAISRSGGSTYYADSVKGRFTISRDNAKNTVYLQMNSLNPEDTAVYYCAAAALDPKGSRYDYWGQGTQVTVSS | low polyreactivity
13 | QVQLVESGGGLVQAGGSLRLSCAASGRIIGLYARGWYRQAPGKERELVAAITWRGGRTYYADSVKGRFTISRDNAKNTVYVQMNRLSPEDTAVYYCAADLSNSLDYWGQGSQVTVSS | high polyreactivity
14 | QVQLVESGGGLDQAGGSLRLSCAASGRTLYKYAMGWYRQAPGKERELVAAIRWIGGSTYYADSVKGRFTISRDNAKNTVYLQMNSLKPEDTAVYYCAATYYYSRYGRYDYWGQGTQVTVSS | high polyreactivity
15 | QVQLVESGGGLVQAGGSLRLSCAASGSTFYRNAMGWYRQAPGKEREFVAAISFRGGGTYADSVKGRFTISRDNAKNTVYLQMNSLKPEDTAVYYCAADHLSYRRRYEYWGLGTQVTVSS | low polyreactivity
16 | QVQLVESGGGLVQAGGSLRLSCAASGSTFGGYAMGWYRPAPGKERELVAAISGSGVRTYYADSVKGRFTISRDNAKNTVYLQMNSLKPEDTAVYYCAKRVRYPGDRYYYWGQGTQVTVSS | high polyreactivity
17 | QVQLVESGGGLVQAGGSLRLSCAASGSIFVEYDMGWYIQAPGKERELVADISGTGNTYYADSVKGRFTISRDNAQNTVYLQMNSLKPEDTSVYYCAAGTYFTNYWSPFVWYDYWGQGTQVTVSS | high polyreactivity

Source: the nanobody polyreactivity screen of Harvey et al. (2022)
